Reference: PMC10724265 (2023)
Blank lines part the entries; values can stand above or below the binder they belong to. Where no end group is shown, it is not given here.

What was measured:
LC3B [1] = target: T1, LC3B (UniProt Q9GZQ8 1-120); assay: ITC
LC3B [2] = target: T1, LC3B; assay: ITC; phosphorylated LIR peptide

Kd (LC3B [1]): 1030 nM
B1: synthetic FAM134C-LIR peptide, non-phosphorylated form (peptide)
chain: LDTDAEGDDFELLDQSELSQ
modifications: synthetic peptide, non-phosphorylated; the exact peptide limits are not printed in the text (figure/supplement); limits taken as the UniProt LIR motif 445-450 plus 7 flanking residues on each side; terminal chemistry unknown

Kd (LC3B [2]): 180 nM
Binder: LDTDAEGDDFELLDQSELSQ (also: phosphorylated close to the LIR motif, residues not given here) [synthetic FAM134C-LIR peptide, phosphorylated form]
